# Source: the Immune Epitope Database (IEDB)
# Tests used:
# [1] = target: HLA-A*26:01; test: IEDB peptide-MHC binding, purified MHC/competitive/fluorescence; filed as Kd, often an IC50 or EC50 that approximates it; ≥ and ≤ were set here for values at or beyond the usual limits of such assays
# [2] = target: HLA-B*15:17; test: as above
# [3] = target: HLA-B*27:03; test: as above
# [4] = target: HLA-B*51:01; test: as above
# [5] = target: HLA-B*40:01; test: IEDB peptide-MHC binding, purified MHC/direct/fluorescence; filed as Kd, often an IC50 or EC50 that approximates it; ≥ and ≤ were set here for values at or beyond the usual limits of such assays
# [6] = target: HLA-B*58:01; test: as above
# [7] = target: HLA-B*46:01; test: as above
# [8] = target: HLA-A*02:12; test: as above
# [9] = target: HLA-A*02:03; test: as above
# [10] = target: HLA-B*44:02; test: as above
# [11] = target: HLA-A*02:11; test: as above; conditions: source organism: Sudan ebolavirus
# [12] = target: HLA-A*03:01; test: as above
# [13] = target: HLA-A*24:03; test: as above
# [14] = target: HLA-A*01:01; test: as above
# [15] = target: HLA-A*02:01; test: as above
# [16] = target: HLA-B*27:05; test: as above
# [17] = target: HLA-B*57:01; test: as above
# [18] = target: HLA-A*31:01; test: as above
# [19] = target: HLA-B*39:01; test: as above
# [20] = target: HLA-B*15:01; test: as above
# [21] = target: HLA-A*02:19; test: as above
# [22] = target: HLA-A*29:02; test: as above
# [23] = target: HLA-B*48:01; test: as above
# [24] = target: HLA-B*18:01; test: as above
# [25] = target: HLA-A*68:02; test: as above
# [26] = target: HLA-A*69:01; test: as above
# [27] = target: HLA-B*40:01; test: IEDB peptide-MHC binding, purified MHC/competitive/radioactivity; filed as Kd, often an IC50 or EC50 that approximates it; ≥ and ≤ were set here for values at or beyond the usual limits of such assays; conditions: source organism: Dengue virus 2 Jamaica/1409/1983
# [28] = target: HLA-A*30:01; test: as above; conditions: source organism: Dengue virus 2 Jamaica/1409/1983
# [29] = target: HLA-B*51:01; test: IEDB peptide-MHC binding, purified MHC/direct/fluorescence; filed as Kd, often an IC50 or EC50 that approximates it; ≥ and ≤ were set here for values at or beyond the usual limits of such assays
# [30] = target: HLA-B*07:02; test: as above
# [31] = target: HLA-A*11:01; test: as above; conditions: source organism: Yellow fever virus
# [32] = target: HLA-A*26:01; test: as above; conditions: source organism: Bacillus anthracis str. A0465
# [33] = target: HLA-B*46:01; test: IEDB peptide-MHC binding, purified MHC/competitive/fluorescence; filed as Kd, often an IC50 or EC50 that approximates it; ≥ and ≤ were set here for values at or beyond the usual limits of such assays
# [34] = target: HLA-A*03:01; test: as above; conditions: source organism: Orthohantavirus negraense
# [35] = target: HLA-A*02:01; test: as above; conditions: source organism: Orthohantavirus negraense
# [36] = target: HLA-B*57:01; test: as above
# [37] = target: HLA-B*39:01; test: as above
# [38] = target: HLA-B*15:01; test: as above
# [39] = target: HLA-B*18:01; test: as above
# [40] = target: HLA-A*69:01; test: as above
# [41] = target: HLA-A*02:16; test: IEDB peptide-MHC binding, purified MHC/direct/fluorescence; filed as Kd, often an IC50 or EC50 that approximates it; ≥ and ≤ were set here for values at or beyond the usual limits of such assays; conditions: source organism: Orthohantavirus negraense
# [42] = source organism: Sudan ebolavirus
# [43] = source organism: Sudan virus - Boniface, Sudan,1976
# [44] = source organism: Zaire ebolavirus
# [45] = source organism: Reston ebolavirus - Reston
# [46] = source organism: Yellow fever virus
# [47] = source organism: Bacillus anthracis str. A0465
# [48] = source organism: Orthohantavirus negraense
sequence,measurement,setting,value
TMMRHRREL,Kd,[1]; [42],≥ 20 µM
same,Kd,[2]; [42],≥ 20 µM
same,Kd,[3]; [42],≥ 20 µM
same,Kd,[4]; [42],≥ 20 µM
same,Kd,[5]; [43],≥ 20 µM
same,Kd,[6]; [43],≥ 20 µM
same,Kd,[7]; [43],≥ 20 µM
same,Kd,[8]; [42],≥ 20 µM
same,Kd,[9]; [42],≥ 20 µM
same,Kd,[10]; [43],≥ 20 µM
same,Kd,[11],≥ 20 µM
same,Kd,[12]; [43],≥ 20 µM
same,Kd,[13]; [42],≥ 20 µM
same,Kd,[14]; [43],≥ 20 µM
same,Kd,[15]; [43],≥ 20 µM
same,Kd,[16]; [43],≥ 20 µM
same,Kd,[17]; [43],≥ 20 µM
same,Kd,[18]; [43],≥ 20 µM
same,Kd,[19]; [43],≥ 20 µM
same,Kd,[20]; [43],≥ 20 µM
same,Kd,[21]; [42],≥ 20 µM
same,Kd,[22]; [43],≥ 20 µM
same,Kd,[23]; [43],≥ 20 µM
same,Kd,[24]; [43],≥ 20 µM
same,Kd,[25]; [42],≥ 20 µM
same,Kd,[26]; [43],≥ 20 µM
RERLSRMAI,Kd,[27],0.0296 µM
same,Kd,[28],0.828 µM
same,Kd,[29]; source organism: dengue virus type 2,≥ 20 µM
SKLRALLTL,Kd,[1]; [44],≥ 20 µM
same,Kd,[2]; [44],≥ 20 µM
same,Kd,[3]; [44],≥ 20 µM
same,Kd,[4]; [44],≥ 20 µM
same,Kd,[5]; [45],≥ 20 µM
same,Kd,[6]; [45],≥ 20 µM
same,Kd,[7]; [45],≥ 20 µM
same,Kd,[8]; [44],≥ 20 µM
same,Kd,[9]; [44],≥ 20 µM
same,Kd,[10]; [45],≥ 20 µM
same,Kd,[12]; [45],≥ 20 µM
same,Kd,[13]; [44],≥ 20 µM
same,Kd,[30]; [45],≥ 20 µM
same,Kd,[14]; [45],≥ 20 µM
same,Kd,[15]; [45],≥ 20 µM
same,Kd,[17]; [45],≥ 20 µM
same,Kd,[18]; [45],≥ 20 µM
same,Kd,[19]; [45],0.618 µM
same,Kd,[20]; [45],≥ 20 µM
same,Kd,[22]; [45],≥ 20 µM
same,Kd,[24]; [45],≥ 20 µM
same,Kd,[25]; [44],≥ 20 µM
same,Kd,[26]; [45],≥ 20 µM
TKDTNDNNL,Kd,[5]; [46],≥ 20 µM
same,Kd,[6]; [46],≥ 20 µM
same,Kd,[7]; [46],≥ 20 µM
same,Kd,[10]; [46],≥ 20 µM
same,Kd,[12]; [46],≥ 20 µM
same,Kd,[30]; [46],≥ 20 µM
same,Kd,[31],≥ 20 µM
same,Kd,[14]; [46],≥ 20 µM
same,Kd,[15]; [46],≥ 20 µM
same,Kd,[16]; [46],≥ 20 µM
same,Kd,[17]; [46],≥ 20 µM
same,Kd,[18]; [46],≥ 20 µM
same,Kd,[20]; [46],≥ 20 µM
same,Kd,[22]; [46],≥ 20 µM
same,Kd,[23]; [46],≥ 20 µM
same,Kd,[24]; [46],≥ 20 µM
same,Kd,[26]; [46],≥ 20 µM
RLLRFTGLF,Kd,[7]; [47],≥ 20 µM
same,Kd,[9]; [47],≥ 20 µM
same,Kd,[32],≥ 20 µM
same,Kd,[29]; [47],≥ 20 µM
same,Kd,[19]; [47],≥ 20 µM
same,Kd,[21]; [47],≥ 20 µM
same,Kd,[24]; [47],≥ 20 µM
same,Kd,[25]; [47],≥ 20 µM
same,Kd,[26]; [47],≥ 20 µM
RVSSDQSAL,Kd,[29]; source organism: Yellow fever virus 17D,≥ 20 µM
SLLFREVWK,Kd,[33]; [48],≥ 20 µM
same,Kd,[34],0.0374 µM
same,Kd,[1]; [48],≥ 20 µM
same,Kd,[2]; [48],≥ 20 µM
same,Kd,[3]; [48],≥ 20 µM
same,Kd,[35],≥ 20 µM
same,Kd,[4]; [48],≥ 20 µM
same,Kd,[36]; [48],≥ 20 µM
same,Kd,[37]; [48],≥ 20 µM
same,Kd,[38]; [48],≥ 20 µM
same,Kd,[39]; [48],≥ 20 µM
same,Kd,[40]; [48],≥ 20 µM
same,Kd,[8]; [48],≥ 20 µM
same,Kd,[9]; [48],≥ 20 µM
same,Kd,[13]; [48],≥ 20 µM
same,Kd,[21]; [48],≥ 20 µM
same,Kd,[22]; [48],≥ 20 µM
same,Kd,[41],≥ 20 µM
KLWTSISCA,Kd,[33]; [44],≥ 20 µM
same,Kd,[1]; [44],≥ 20 µM
same,Kd,[2]; [44],≥ 20 µM
same,Kd,[3]; [44],≥ 20 µM
same,Kd,[4]; [44],≥ 20 µM
same,Kd,[36]; [44],≥ 20 µM
same,Kd,[37]; [44],≥ 20 µM
same,Kd,[38]; [44],≥ 20 µM
same,Kd,[39]; [44],≥ 20 µM
same,Kd,[40]; [44],≥ 20 µM
same,Kd,[12]; [44],≥ 20 µM
same,Kd,[13]; [44],≥ 20 µM
same,Kd,[15]; source organism: Sudan ebolavirus - Maleo (1979),0.0082 µM
same,Kd,[22]; [44],≥ 20 µM
same,Kd,[25]; [44],≥ 20 µM
